What was measured:
Experiment in all cases: ITC; 250 μM PabB titrated into 25 μM PabA in the cell; 25 °C; 50 mM Tris/HCl pH 7.5, 50 mM KCl, 5 mM MgCl2; without Cho and Gln; one set of sites
Settings in all cases: both partners purified
[1] = biological target: T1, PabB variant bG207P (Escherichia coli, UniProt P05041 1-453, bG207P)
T1 construct: PabB, synthase subunit of ADCS, E. coli; construct as m2 with one exchange; Made by QuikChange mutagenesis from the construct of m2; source: E. coli BL21-Gold (DE3), purified (Ni-IMAC, preparative gel filtration)
T1 sequence: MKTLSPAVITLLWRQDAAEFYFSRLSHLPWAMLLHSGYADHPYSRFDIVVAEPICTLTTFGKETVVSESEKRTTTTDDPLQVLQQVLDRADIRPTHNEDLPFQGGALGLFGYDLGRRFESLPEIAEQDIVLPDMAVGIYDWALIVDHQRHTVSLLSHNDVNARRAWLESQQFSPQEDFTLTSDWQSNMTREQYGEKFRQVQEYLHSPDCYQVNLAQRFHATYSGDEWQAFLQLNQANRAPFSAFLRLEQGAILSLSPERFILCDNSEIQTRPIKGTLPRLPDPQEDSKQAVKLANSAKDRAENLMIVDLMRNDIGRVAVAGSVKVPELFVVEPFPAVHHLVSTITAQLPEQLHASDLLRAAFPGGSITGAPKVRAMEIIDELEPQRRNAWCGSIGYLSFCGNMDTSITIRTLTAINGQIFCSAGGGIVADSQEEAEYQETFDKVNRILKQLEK

[2] = biological target: T2, PabB variant bY210F (Escherichia coli, UniProt P05041 1-453, bY210F)
T2 construct: PabB, synthase subunit of ADCS, E. coli; construct as m2 with one exchange; Made by QuikChange mutagenesis from the construct of m2; source: E. coli BL21-Gold (DE3), purified (Ni-IMAC, preparative gel filtration)
T2 sequence: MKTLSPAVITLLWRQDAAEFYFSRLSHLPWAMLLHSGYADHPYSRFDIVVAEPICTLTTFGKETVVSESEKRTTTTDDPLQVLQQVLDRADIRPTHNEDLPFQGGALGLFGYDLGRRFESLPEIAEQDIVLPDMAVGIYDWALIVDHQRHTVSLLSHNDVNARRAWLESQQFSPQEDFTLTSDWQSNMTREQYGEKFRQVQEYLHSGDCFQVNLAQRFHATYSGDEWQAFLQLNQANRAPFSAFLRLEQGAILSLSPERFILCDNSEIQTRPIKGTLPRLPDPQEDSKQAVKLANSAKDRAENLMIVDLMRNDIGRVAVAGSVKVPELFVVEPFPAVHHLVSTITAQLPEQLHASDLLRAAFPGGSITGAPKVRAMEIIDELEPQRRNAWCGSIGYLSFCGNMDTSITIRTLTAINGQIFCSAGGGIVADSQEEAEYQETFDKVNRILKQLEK

[3] = biological target: T3, PabB variant bD308E (Escherichia coli, UniProt P05041 1-453, bD308E)
T3 construct: PabB, synthase subunit of ADCS, E. coli; construct as m2 with one exchange; Made by QuikChange mutagenesis from the construct of m2; source: E. coli BL21-Gold (DE3), purified (Ni-IMAC, preparative gel filtration)
T3 sequence: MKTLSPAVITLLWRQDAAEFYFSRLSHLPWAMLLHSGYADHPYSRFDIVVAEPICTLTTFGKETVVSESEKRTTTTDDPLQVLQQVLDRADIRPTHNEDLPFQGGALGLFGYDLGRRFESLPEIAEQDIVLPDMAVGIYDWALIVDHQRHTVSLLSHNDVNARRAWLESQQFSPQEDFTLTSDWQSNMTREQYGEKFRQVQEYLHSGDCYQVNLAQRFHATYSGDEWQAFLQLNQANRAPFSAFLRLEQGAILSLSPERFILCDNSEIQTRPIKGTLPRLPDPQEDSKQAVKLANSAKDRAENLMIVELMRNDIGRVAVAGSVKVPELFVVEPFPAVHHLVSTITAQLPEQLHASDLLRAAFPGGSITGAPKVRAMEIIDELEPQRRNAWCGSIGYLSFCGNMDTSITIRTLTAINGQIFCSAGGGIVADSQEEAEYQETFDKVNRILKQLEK

- Kd [1]: 1700 nM
- Kd [2]: 530 nM
- Kd [3]: 1700 nM
B1: PabA, glutaminase subunit of aminodeoxychorismate synthase (ADCS) from Escherichia coli, wild type (enzyme)
chain: MILLIDNYDSFTWNLYQYFCELGADVLVKRNDALTLADIDALKPQKIVISPGPCTPDEAGISLDVIRHYAGRLPILGVCLGHQAMAQAFGGKVVRAAKVMHGKTSPITHNGEGVFRGLANPLTVTRYHSLVVEPDSLPACFDVTAWSETREIMGIRHRQWDLEGVQFHPESILSEQGHQLLANFLHR
notes: PabA, class I glutaminase subunit of ADCS, E. coli; the gene was cloned into pET28a; Form used for SEC, ITC and kinetics; TEV cleavage is told only of the proteins used for crystallization; The G5H-Tag stands between the TEV site and the start methionine of PabA; also called wt PabA; ADCS glutaminase subunit; source: E. coli BL21-Gold (DE3), purified (Ni-IMAC, preparative gel filtration)

Reference: paper PMC7617670, “Activity Regulation of a Glutamine Amidotransferase Bienzyme Complex by Substrate-Induced Subunit Interface Expansion” (ACS catalysis, 2025)
